Measurements: article PMC12136792, “ADP ribosylation factor–like GTPase 6–interacting protein 5 (Arl6IP5) is an ER membrane-shaping protein that modulates ER-phagy” (The Journal of Biological Chemistry, 2025)

Target: the molecule itself
Assay: SDS-PAGE and immunoblot without cross-linker (SDS-resistant dimer); same membrane fraction of COS-7 cells transfected with HA-Arl6IP5, without BS3; anti-HA immunoblot

B1: HA-tagged Arl6IP5 (ADP ribosylation factor-like GTPase 6-interacting protein 5) (natural protein, human, UniProt O75915 1-188, looked up)
chain: MDVNIAPLRAWDDFFPGSDRFARPDFRDISKWNNRVVSNLLYYQTNYLVVAAMMISIVGFLSPFNMILGGIVVVLVFTGFVWAAHNKDVLRRMKKRYPTTFVMVVMLASYFLISMFGGVMVFVFGITFPLLLMFIHASLRLRNLKNKLENKMEGIGLKRTPMGIVLDALEQQEEGINRLTDYISKVKE
notes: Arl6IP5, human, cDNA in pCMV vector with N-terminal HA tag; ER membrane protein; tested in the membrane fraction, not solubilised; also called HA-Arl6IP5; PRAF3; source: COS-7, transfected (PEI), crude membrane fraction; not shown: HA, N-terminal, kept
  stoichiometry N: 2
